These results are taken from article PMC4753521, “Real-time and simultaneous monitoring of the phosphorylation and enhanced interaction of p53 and XPC acidic domains with the TFIIH p62 subunit” (Oncogenesis, 2015).

Non-standard residues stand in square brackets, D forms with d. No end group written: not given here. pT = C[C@@H](OP(=O)(O)O)[C@H](N)C(=O)O; pS = N[C@@H](COP(=O)(O)O)C(=O)O

What all share (settings): both partners purified
The target in test [1] is T1, human TFIIH p62-PH domain (residues 1–108) (human, UniProt P32780 1-108).
T1 construct: PH domain of the p62 subunit of the general transcription factor TFIIH, human, residues 1-108; Used 15N- or 13C/15N-labelled in the NMR experiments, unlabelled when added to XPC-AF; also called pleckstrin homology (PH) domain of the p62 subunit of TFIIH
T1 sequence (looked up): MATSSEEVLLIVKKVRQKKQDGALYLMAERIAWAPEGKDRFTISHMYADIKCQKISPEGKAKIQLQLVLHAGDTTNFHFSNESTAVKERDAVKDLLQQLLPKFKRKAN
The test is described as follows: NMR titration; 1H,15N HSQC perturbation: p53-TAD2 peptides added to 15N-labeled p62-PH at a molar ratio of 1:2.5 (p62:p53); 20 mM potassium phosphate (pH 6.8), 1 mM ATP, 10 mM MgCl2, 5 mM deuterated DTT, 10% D2O; 32 °C.

Test [2] addresses T1, human TFIIH p62-PH domain (residues …). Briefly: ITC; VP-ITC; 100 μM XPC peptide in the syringe (25 × 20 μl injections), 2 ml of 10 μM p62-PH in the cell; 20 °C; 20 mM potassium phosphate (pH 6.8). On the technique in general: Isothermal titration calorimetry measures the heat released or taken up as one component is titrated into another.
For test [3] the target is unchanged. The test is described as follows: NMR titration; real-time NMR of 150 μl of 50 μM complex of labeled XPC-AF and labeled p62-PH; 2.5 μg CK2 added; 20 mM potassium phosphate (pH 6.8), 1 mM ATP, 10 mM MgCl2, 5 mM deuterated DTT, 10% D2O.

B1: Ser46-phosphorylated peptide of human p53-TAD2 (residues 41–62) (peptide, UniProt P04637 41-62, looked up)
peptide: DDLML[pS]PDDIEQWFTEDPGPDE
notes: p53 TAD2, human, residues 41-62; also called Ser46-phosphorylated p53-TAD2; source: synthetic peptide, bought: Sigma Genosys Japan
For the molecule B1, the binding result in test [1] is given as “binds”.

B2: Thr55-phosphorylated peptide of human p53-TAD2 (residues 41–62) (peptide, UniProt P04637 41-62, looked up)
peptide: DDLMLSPDDIEQWF[pT]EDPGPDE
notes: p53 TAD2, human, residues 41-62; also called Thr55-phosphorylated p53-TAD2; TP; source: synthetic peptide, bought: Sigma Genosys Japan
In the case of B2, the binding result in test [1] was “binds”.

B3: Ser129-phosphorylated peptide of human XPC (residues 124–142) (peptide, UniProt Q01831 124-142, looked up)
peptide: EEEEE[pS]ENDWEEVEELSEP
notes: XPC, human, residues 124-142; also called Ser129-phosphorylated XPC peptide; source: synthetic peptide, bought: Sigma Genosys Japan
In test [2], B3 showed a Kd of 0.041 µM.

B4: human XPC-AF (residues 109–156) phosphorylated at Ser129 by CK2 (domain or fragment, UniProt Q01831 109-156, looked up)
chain: AHHLKRGATMNEDSNEEEEE[pS]ENDWEEVEELSEPVLGDVRESTAFSRS
modifications: also: 13C/15N-labeled
notes: acidic fragment of the nucleotide excision repair factor XPC, human, residues 109-156; 13C/15N-labelled; in the complex with p62-PH phosphorylation of Ser129 reached ~80% at ~2 h; also called Ser129-phosphorylated XPC-AF; source: E. coli Rosetta 2 (DE3) pLysS, purified (Ni-NTA, thrombin digestion, Superdex30); phosphorylated by CK2 in the NMR tube
On to B4, for which the binding result in test [3] was “binds”.

B5: Ser46, Thr55 double-phosphorylated peptide of human p53-TAD2 (residues 41–62) (peptide, UniProt P04637 41-62, looked up)
peptide: DDLML[pS]PDDIEQWF[pT]EDPGPDE
notes: p53 TAD2, human, residues 41-62; also called Ser46, Thr55 double-phosphorylated p53-TAD2; source: synthetic peptide, bought: Sigma Genosys Japan
B5: the binding result in test [1] is listed as “binds”.

B6: unphosphorylated peptide of human XPC (residues 124–142) (peptide, UniProt Q01831 124-142, looked up)
peptide: EEEEESENDWEEVEELSEP
notes: XPC, human, residues 124-142; also called unphosphorylated XPC peptide; source: synthetic peptide, bought: Sigma Genosys Japan
As to B6, binding in test [2] was characterised by a dissociation constant (Kd) of 0.132 µM.

By Kd is commonly meant the free concentration of one partner at which half of the binding sites on the other are occupied at equilibrium, for simple one-to-one binding. High values mean lower affinity, low ones higher affinity.
